Reference: PMC6273887, “cDNA Isolation and Functional Characterization of UDP-D-glucuronic Acid 4-Epimerase Family from Ornithogalum caudatum” (Molecules, 2016)

Substrate: O=C(O)[C@H]1O[C@H](OP(=O)(O)OP(=O)(O)OC[C@H]2O[C@@H](n3ccc(=O)[nH]c3=O)[C@H](O)[C@@H]2O)[C@H](O)[C@@H](O)[C@@H]1O
Test: HPLC of UDP-GalA formation, Lineweaver-Burk plot
Format: biochemical, Albuca bracteata
Settings: 100 mM PBS, pH 7.8, 37 °C, 20 min, 0.156-10 mM UDP-GlcA, unpurified Pichia supernatant, substrate misprinted UDP-D-Glc, UDP-GlcA in b32 and b56

B1: OcUGlcAE3 (Albuca bracteata) (protein)
chain: MDAMISPSTPGKFKPEKPHHHLHHHHHRPLFRLQHSPLFKCGLIVVCASVVVVLLLCLAPSHPSSSSSSSSSPFAASRIERRSLSASSSSSWGGAEWEKRVRYSARIRRVGGFSVLVTGAGGFVGTHVSAALKRRGDGVLGLDCFNDYYEPSLKRARQALLDRIGVFVVEGDINDGPLLRKLFDVVPFTHVMHLAAQAGVRYAMKNPASYVHSNIAGLVTLLEACKSADPQPAVVWASSSSVYGLNTKVPFSEFHRTDRPASLYAATKKAGEEIAHTYNHIYGLSITGLRFFTVYGPWGRPDMAYFFFTNDLLNGKPITIFEGPKGESVARDFTYIDDIVQGCIGALDTAKKSTGTGGKKRGPAQLRVYNLGNTSPVPVTELVTILERLLKVKANKKVVKMPANGDVQFTHANISLAQRELGYHPTTDLKTGLKRFVRWYIEYYNPPGVASLTKKSARSNSS
notes: full-length ORF (1389 bp); 12,000 g/160,000 g lysate supernatant, unpurified
  Km: 170 ± 70 µM
